Results from patent publication US20240199746A1 (published 2024).
Numbering of substitutions follows the chain as printed. Names may count otherwise. One block for each binder: values may come before it.

Experiments:
[1] = target: T1, Ax1 protein, extracellular domain (human, UniProt P30530 26-451); assay: ELISA, mutant diluted 1:3
T1 construct: extracellular domain; also called Axl; Ark
T1 sequence (looked up): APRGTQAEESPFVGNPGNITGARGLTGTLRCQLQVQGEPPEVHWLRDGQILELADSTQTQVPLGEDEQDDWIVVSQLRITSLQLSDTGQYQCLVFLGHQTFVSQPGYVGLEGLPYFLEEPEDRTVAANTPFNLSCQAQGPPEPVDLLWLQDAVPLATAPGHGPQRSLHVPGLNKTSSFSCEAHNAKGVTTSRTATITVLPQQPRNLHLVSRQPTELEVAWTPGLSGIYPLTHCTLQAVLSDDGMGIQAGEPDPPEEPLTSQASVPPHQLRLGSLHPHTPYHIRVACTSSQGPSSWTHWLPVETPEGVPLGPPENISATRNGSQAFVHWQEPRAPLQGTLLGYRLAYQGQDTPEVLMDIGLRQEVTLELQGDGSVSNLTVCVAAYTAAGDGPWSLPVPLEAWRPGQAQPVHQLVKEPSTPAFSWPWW
Text: (§1) The DNA encoding the wild-type antibody was evolved to generate a mutant antibody library using Comprehensive Positional Evolution (CPE), which each position in the template antibody is randomized one at a time. Each mutant antibody in the library has only one single point mutation. The mutant antibodies in the library were generated by simultaneously screening for selective binding affinity to Ax1 at pH 6.0 over pH 7.4 by ELISA. Two mutant antibody dilutions were used: 1:3 and 1:9 dilutions.

[2] = target: T1, Ax1 protein, extracellular domain; assay: ELISA, mutant diluted 1:9
Text: as §1

B4: HC-E102L (antibody, V domains shown)
VH: EVQLVQSGAEVKKPGATVKISCKVSGYSFTGHTMNWIRQPPGKGLEWIGLIKPSNGGTSYNQKFKGRVTISADKSISTAYLQWSSLKASDTAMYYCAHGHYLSYFAMDYWGQGTLVTVSS
VL: DIQMTQSPSSLSASVGDRVTITCKASQDVSSAVAWYQQKPGQAPRLLIYWASTRHTGVPSRFSGSGSGTEFTLTISSLQPDDFATYYCQEHFSTPLTFGQGTKVEIK
notes: CPE single point mutant
Affinity ELISA CPE mutant ratio (1:3, pH 6.0/7.4) [1]: 3.27 | Affinity ELISA CPE mutant ratio (1:9, pH 6.0/7.4) [2]: 2.7

B9: HC-A106D (antibody, V domains shown)
VH: B4 VH with L102E, A106D
VL: B4 VL
notes: CPE single point mutant
Affinity ELISA CPE mutant ratio (1:3, pH 6.0/7.4) [1]: 3.39 | Affinity ELISA CPE mutant ratio (1:9, pH 6.0/7.4) [2]: 2.51

B11: HC-E102Y (antibody, V domains shown)
VH: B4 VH with L102Y
VL: B4 VL
notes: CPE single point mutant
Affinity ELISA CPE mutant ratio (1:3, pH 6.0/7.4) [1]: 2.61 | Affinity ELISA CPE mutant ratio (1:9, pH 6.0/7.4) [2]: 1.99

B12: HC-E102V (antibody, V domains shown)
VH: B4 VH with L102V
VL: B4 VL
notes: CPE single point mutant
Affinity ELISA CPE mutant ratio (1:3, pH 6.0/7.4) [1]: 1.93 | Affinity ELISA CPE mutant ratio (1:9, pH 6.0/7.4) [2]: 2.51

B14: HC-E102M (antibody, V domains shown)
VH: B4 VH with L102M
VL: B4 VL
notes: CPE single point mutant
Affinity ELISA CPE mutant ratio (1:3, pH 6.0/7.4) [1]: 2.08 | Affinity ELISA CPE mutant ratio (1:9, pH 6.0/7.4) [2]: 2.36

B18: HC-B102D (antibody, V domains shown)
VH: B4 VH with L102D
VL: B4 VL
notes: CPE single point mutant; printed B102, read as E102 (other rows print HC-E102x)
Affinity ELISA CPE mutant ratio (1:3, pH 6.0/7.4) [1]: 2.67 | Affinity ELISA CPE mutant ratio (1:9, pH 6.0/7.4) [2]: 2.85

B19: HC-B102H (antibody, V domains shown)
VH: B4 VH with L102H
VL: B4 VL
notes: as for B18
Affinity ELISA CPE mutant ratio (1:3, pH 6.0/7.4) [1]: 2.08 | Affinity ELISA CPE mutant ratio (1:9, pH 6.0/7.4) [2]: 2.31

B20: HC-F105S (antibody, V domains shown)
VH: B4 VH with L102E, F105S
VL: B4 VL
notes: CPE single point mutant
Affinity ELISA CPE mutant ratio (1:3, pH 6.0/7.4) [1]: 3.9 | Affinity ELISA CPE mutant ratio (1:9, pH 6.0/7.4) [2]: 4.54

B21: HC-B102I (antibody, V domains shown)
VH: B4 VH with L102I
VL: B4 VL
notes: as for B18
Affinity ELISA CPE mutant ratio (1:3, pH 6.0/7.4) [1]: 2.02 | Affinity ELISA CPE mutant ratio (1:9, pH 6.0/7.4) [2]: 1.7

B23: HC-B102F (antibody, V domains shown)
VH: B4 VH with L102F
VL: B4 VL
notes: as for B18
Affinity ELISA CPE mutant ratio (1:3, pH 6.0/7.4) [1]: 1.88 | Affinity ELISA CPE mutant ratio (1:9, pH 6.0/7.4) [2]: 1.36

B24: HC-F105N (antibody, V domains shown)
VH: B4 VH with L102E, F105N
VL: B4 VL
notes: CPE single point mutant
Affinity ELISA CPE mutant ratio (1:3, pH 6.0/7.4) [1]: 2.36 | Affinity ELISA CPE mutant ratio (1:9, pH 6.0/7.4) [2]: 2.64

B26: HC-A106L (antibody, V domains shown)
VH: B4 VH with L102E, A106L
VL: B4 VL
notes: CPE single point mutant
Affinity ELISA CPE mutant ratio (1:3, pH 6.0/7.4) [1]: 21.5 | Affinity ELISA CPE mutant ratio (1:9, pH 6.0/7.4) [2]: 1.61

B27: HC-B102G (antibody, V domains shown)
VH: B4 VH with L102G
VL: B4 VL
notes: as for B18
Affinity ELISA CPE mutant ratio (1:3, pH 6.0/7.4) [1]: 1.8 | Affinity ELISA CPE mutant ratio (1:9, pH 6.0/7.4) [2]: 2.68

B28: HC-B102A (antibody, V domains shown)
VH: B4 VH with L102A
VL: B4 VL
notes: as for B18
Affinity ELISA CPE mutant ratio (1:3, pH 6.0/7.4) [1]: 1.53 | Affinity ELISA CPE mutant ratio (1:9, pH 6.0/7.4) [2]: 1.69

B32: HC-A106G (antibody, V domains shown)
VH: B4 VH with L102E, A106G
VL: B4 VL
notes: CPE single point mutant
Affinity ELISA CPE mutant ratio (1:3, pH 6.0/7.4) [1]: 1.52 | Affinity ELISA CPE mutant ratio (1:9, pH 6.0/7.4) [2]: 2.2

More lines, now with the values ahead:

Affinity ELISA CPE mutant ratio (1:3, pH 6.0/7.4) [1]: 7.99 | Affinity ELISA CPE mutant ratio (1:9, pH 6.0/7.4) [2]: 0.932
B1: HC-W110H (antibody, V domains shown)
VH: B4 VH with L102E, W110H
VL: B4 VL

Affinity ELISA CPE mutant ratio (1:3, pH 6.0/7.4) [1]: 7.47 | Affinity ELISA CPE mutant ratio (1:9, pH 6.0/7.4) [2]: 1.37
B2: HC-W110T (antibody, V domains shown)
VH: B4 VH with L102E, W110T
VL: B4 VL

Affinity ELISA CPE mutant ratio (1:3, pH 6.0/7.4) [1]: 5.99 | Affinity ELISA CPE mutant ratio (1:9, pH 6.0/7.4) [2]: 1.06
B3: HC-W110R (antibody, V domains shown)
VH: B4 VH with L102E, W110R
VL: B4 VL

Affinity ELISA CPE mutant ratio (1:3, pH 6.0/7.4) [1]: 4.3 | Affinity ELISA CPE mutant ratio (1:9, pH 6.0/7.4) [2]: 0.8
B5: HC-W110N (antibody, V domains shown)
VH: B4 VH with L102E, W110N
VL: B4 VL

Affinity ELISA CPE mutant ratio (1:3, pH 6.0/7.4) [1]: 7.31 | Affinity ELISA CPE mutant ratio (1:9, pH 6.0/7.4) [2]: 1.2
B6: HC-W110A (antibody, V domains shown)
VH: B4 VH with L102E, W110A
VL: B4 VL

Affinity ELISA CPE mutant ratio (1:3, pH 6.0/7.4) [1]: 8.22 | Affinity ELISA CPE mutant ratio (1:9, pH 6.0/7.4) [2]: 0.924
B7: HC-W110L (antibody, V domains shown)
VH: B4 VH with L102E, W110L
VL: B4 VL

Affinity ELISA CPE mutant ratio (1:3, pH 6.0/7.4) [1]: 6.49 | Affinity ELISA CPE mutant ratio (1:9, pH 6.0/7.4) [2]: 2.15
B8: HC-W110P (antibody, V domains shown)
VH: B4 VH with L102E, W110P
VL: B4 VL

Affinity ELISA CPE mutant ratio (1:3, pH 6.0/7.4) [1]: 20.6 | Affinity ELISA CPE mutant ratio (1:9, pH 6.0/7.4) [2]: 1.09
B10: HC-M107F (antibody, V domains shown)
VH: B4 VH with L102E, M107F
VL: B4 VL
notes: CPE single point mutant

Affinity ELISA CPE mutant ratio (1:3, pH 6.0/7.4) [1]: 1.02 | Affinity ELISA CPE mutant ratio (1:9, pH 6.0/7.4) [2]: 1.93
B13: HC-S059T (antibody, V domains shown)
VH: B4 VH with S59T, L102E
VL: B4 VL
notes: CPE single point mutant

Affinity ELISA CPE mutant ratio (1:3, pH 6.0/7.4) [1]: 1.4 | Affinity ELISA CPE mutant ratio (1:9, pH 6.0/7.4) [2]: 1.89
B15: HC-P053N (antibody, V domains shown)
VH: B4 VH with P53N, L102E
VL: B4 VL
notes: CPE single point mutant

Affinity ELISA CPE mutant ratio (1:3, pH 6.0/7.4) [1]: 1.88 | Affinity ELISA CPE mutant ratio (1:9, pH 6.0/7.4) [2]: 2.51
B16: HC-H100R (antibody, V domains shown)
VH: B4 VH with H100R, L102E
VL: B4 VL
notes: CPE single point mutant

Affinity ELISA CPE mutant ratio (1:3, pH 6.0/7.4) [1]: 2.43 | Affinity ELISA CPE mutant ratio (1:9, pH 6.0/7.4) [2]: 2.8
B17: HC-F105V (antibody, V domains shown)
VH: B4 VH with L102E, F105V
VL: B4 VL
notes: CPE single point mutant

Affinity ELISA CPE mutant ratio (1:3, pH 6.0/7.4) [1]: 2.58 | Affinity ELISA CPE mutant ratio (1:9, pH 6.0/7.4) [2]: 1.18
B22: HC-H100P (antibody, V domains shown)
VH: B4 VH with H100P, L102E
VL: B4 VL
notes: CPE single point mutant

Affinity ELISA CPE mutant ratio (1:3, pH 6.0/7.4) [1]: 30.5 | Affinity ELISA CPE mutant ratio (1:9, pH 6.0/7.4) [2]: 2.06
B25: HC-S059I (antibody, V domains shown)
VH: B4 VH with S59I, L102E
VL: B4 VL
notes: CPE single point mutant

Affinity ELISA CPE mutant ratio (1:3, pH 6.0/7.4) [1]: 2.81 | Affinity ELISA CPE mutant ratio (1:9, pH 6.0/7.4) [2]: 1.12
B29: HC-N035I (antibody, V domains shown)
VH: B4 VH with N35I, L102E
VL: B4 VL
notes: CPE single point mutant

Affinity ELISA CPE mutant ratio (1:3, pH 6.0/7.4) [1]: 2.42 | Affinity ELISA CPE mutant ratio (1:9, pH 6.0/7.4) [2]: 3.09
B30: HC-H100D (antibody, V domains shown)
VH: B4 VH with H100D, L102E
VL: B4 VL
notes: CPE single point mutant

Affinity ELISA CPE mutant ratio (1:3, pH 6.0/7.4) [1]: 3.46 | Affinity ELISA CPE mutant ratio (1:9, pH 6.0/7.4) [2]: 4.02
B31: HC-F105T (antibody, V domains shown)
VH: B4 VH with L102E, F105T
VL: B4 VL
notes: CPE single point mutant

Affinity ELISA CPE mutant ratio (1:3, pH 6.0/7.4) [1]: 2.16 | Affinity ELISA CPE mutant ratio (1:9, pH 6.0/7.4) [2]: 1.36
B33: HC-M107E (antibody, V domains shown)
VH: B4 VH with L102E, M107E
VL: B4 VL
notes: CPE single point mutant
